Laboratory results published in patent US8916149B2, “Preventing and treating sepsis” (University of Rochester, priority 2008, dated 2014).
“Also recorded” adds a separate entry of the source.

Legend:
human neutrophils [1] = assay: Micropipette assay (directional migration toward fMLP tip); format: cell-based
Method: (§1) Delta T dishes were coated with human FN (50 μg/ml, BD Biosciences, San Jose, Calif.) for overnight at 4° C. and then for 4 h at room temperature. Plates were then rinsed with L-15 media. […] The cells were then added to FN-coated dishes in 1.5 ml of L-15 with 2 mg/ml of glucose. For neutrophil live cell staining, 2 μM Green Cell Tracker CMFDA (5-chloromethylfluorescein diacetate; Molecular Probes, Carlsbad, Calif.) was used. Temperature was maintained at 37° C. throughout the experiment using a FCS2 live-cell imaging chamber (Bioptechs, Butler, Pa.). Images were acquired for 30 to 60 minutes under a 10× objective lens using a Nikon TE-2000U inverted microscope. Phase contrast images were acquired every 5 seconds and fluorescence images every 30 seconds. Cell paths were traced using MetaVue™ imaging software (Molecular Devices Corporation, Downingtown, Pa.).
Directional migration was investigated using a micropipette assay to analyze the dynamics of neutrophil migration on different integrin ligands. Sterile Femtotips II micropipette tips (Eppendorf, Westbury, N.Y.) were loaded with 5 μl of 1 μM fMLP and then placed on the bottom of FN-coated delta T dishes that had been pre-warmed to 37° C. Image acquisition began within 2 minutes of tip placement.
(§2) The time-lapsed images of migrating neutrophils were taken under phase contrast microscopy. Each image was thresholded and binarized based on brightness to define the centroids of the neutrophils. The closest centroids between consecutive images were linked as a trajectory under the assumption that these centroids were made by the same neutrophil. The maximum distance between the closest centroids was also defined to preclude the artifacts due to cells moving into and out of the field of view.

human neutrophils [2] = assay: Intracellular Ca2+ measurement (Fluo-4); format: cell-based; conditions: 10 nM fMLP
Method: 1×10^7 cells/ml of human neutrophils were labeled with […] Fluo-4 AM (Molecular Probes, Eugene, Oreg.) at 37° C. for 30 minutes, then at room temperature for an additional 5 to 10 minutes. After washing twice, cells were resuspended to 4×10^6 cells/ml (6 ml) in F15 and incubated at RT for de-esterification. For measurements, cells (4×10^6) were spun down in a microtube (1 ml), resuspend in 1 ml of F15 at 37° C., transferred to a quartz cuvette containing a fluorometric stir bar and 1 ml of the same buffer at 37° C., and fluorescence signals were measured in the fluorometer.

LPS treated mice = assay: Neutrophil recruitment into airspace (BALF) after intranasal LPS; format: in vivo, mice (C57BL/6); conditions: 10 μg/mouse i.v. 2 hours after LPS
Method: Mice (C57BL/6, 6-8 weeks) were anesthetized with avertin and then intranasally administered 30 μg of LPS (Sigma-Aldrich, St. Louis, Mo.). […] Mice were sacrificed 4 hours later and bronchioalveolar lavage was harvested. Cells were fixed with 4% formaldehyde for 20 minutes. Cells were counted using microbeads (Polyscience, Niles, Ill.) by flow cytometry. Cells were stained with Gr-1 APC antibody (eBioscience, San Diego, Calif.) and collected by flow cytometry. Data were analyzed using FlowJo software (Tree Star, Ashland, Oreg.).

α3β1 = biological target: T1, α3β1 (Homo sapiens, UniProt P05556+P26006); assay: Solid phase integrin ligand binding assay; conditions: 1 mM Mn2+, 1 mM Ca2+, 1 mM Mg2+
T1 construct: purchased US Biological, Swampscott, Mass
Method: (§3) The solid phase binding assay was performed using purified soluble human α3β1, α5β1, and αVβ3 (US Biological, Swampscott, Mass.). Two (2) μg/ml of soluble integrins were added to microtiter wells for capture with immobilized monoclonal antibody against β1 or β3 subunits (mAb TS2/6 for β1 and mAb BB10 (Chemicon, Temecula, Calif.) for β3 integrins). […] After washing, bound APC was chromogenically detected by peroxidase-streptavidin conjugate anti-PC (Diapharma, West Chester, Ohio) or chromogenic substrate S-2366 (Diapharma, West Chester, Ohio). To minimize dissociation, all wash buffers contained 1 mM Mn^2+, and <15 minutes elapsed between the end of binding and beginning of color development. Functional blocking antibodies for integrins were from Chemicon (Temecula, Calif.).
(§4) Among the neutrophil integrins that recognize the RGD motif, α3β1, α5β1, and αVβ3 are key in regulating neutrophil chemotaxis (Yauch et al., Mol. Biol. Cell 9:2751 (1998); Burns et al., J. Immunol. 166:4644 (2001); Sixt et al., J. Biol. Chem. 276:18878 (2001)). To test whether APC can bind directly to the integrins, an ELISA-like solid phase receptor-binding assay was performed (FIG. 2E). Soluble α3β1, α5β1, and αVβ3 were captured onto microtiter wells using mAbs specific for β1 or β3.

αVβ3 = biological target: T2, αVβ3 (Homo sapiens, UniProt P05106+P06756); assay: Solid phase integrin ligand binding assay; conditions: 1 mM Mn2+, 1 mM Ca2+, 1 mM Mg2+
T2 construct: purchased US Biological, Swampscott, Mass
Method: as §3, §4

α5β1 = biological target: T3, α5β1 (Homo sapiens, UniProt P05556+P08648); assay: Solid phase integrin ligand binding assay; conditions: 1 mM Mn2+, 1 mM Ca2+, 1 mM Mg2+
T3 construct: purchased US Biological, Swampscott, Mass
Method: as §3, §4

human neutrophils [3] = assay: Neutrophil adhesion assay on immobilized fibronectin (FN); format: cell-based; conditions: 10 μg/ml protein
Method: The adhesion assay was carried out essentially as described (Vorup-Jensen et al., PNAS 102:1614 (2005)). Cover slips were coated with FN in coating buffer (150 mM NaCl/20 mM Tris.HCl, pH 9.0) for over night at 4° C. and for 4 hours at room temperature. Residual binding sites were blocked by incubation of the wells with 0.05% (wt/vol) polyvinylpyrrolidone in PBS for 30 minutes at room temperature. […] The cover slips were aspirated, and washed with L15 medium. […] Cells (250 μl) were then immediately added, and further incubated at 37° C. for 15 minutes. Unbound cells were then washed with warm L15 medium. The bound cells were then fixed with formaldehyde. For each experimental condition from three independent donors, five random phase-contrast images were obtained, and the number of cells in each well was scored from printed micrographs.

human neutrophils [4] = assay: Random migration of neutrophils on FN-coated cover glass (live-cell imaging); format: cell-based
Method: as §1
Random migration was investigated by adding fMLP or IL-8 to media at a final concentration of 10^−8M and analyzed by manually tracing the outline of each cell in selected frames (i.e., at 50 second intervals). The x and y coordinates of each cell were measured using ImageJ software and were corrected so that the starting position was x=0 and y=0.
as §2

T1 sequence (P26006 33-872 limits assumed): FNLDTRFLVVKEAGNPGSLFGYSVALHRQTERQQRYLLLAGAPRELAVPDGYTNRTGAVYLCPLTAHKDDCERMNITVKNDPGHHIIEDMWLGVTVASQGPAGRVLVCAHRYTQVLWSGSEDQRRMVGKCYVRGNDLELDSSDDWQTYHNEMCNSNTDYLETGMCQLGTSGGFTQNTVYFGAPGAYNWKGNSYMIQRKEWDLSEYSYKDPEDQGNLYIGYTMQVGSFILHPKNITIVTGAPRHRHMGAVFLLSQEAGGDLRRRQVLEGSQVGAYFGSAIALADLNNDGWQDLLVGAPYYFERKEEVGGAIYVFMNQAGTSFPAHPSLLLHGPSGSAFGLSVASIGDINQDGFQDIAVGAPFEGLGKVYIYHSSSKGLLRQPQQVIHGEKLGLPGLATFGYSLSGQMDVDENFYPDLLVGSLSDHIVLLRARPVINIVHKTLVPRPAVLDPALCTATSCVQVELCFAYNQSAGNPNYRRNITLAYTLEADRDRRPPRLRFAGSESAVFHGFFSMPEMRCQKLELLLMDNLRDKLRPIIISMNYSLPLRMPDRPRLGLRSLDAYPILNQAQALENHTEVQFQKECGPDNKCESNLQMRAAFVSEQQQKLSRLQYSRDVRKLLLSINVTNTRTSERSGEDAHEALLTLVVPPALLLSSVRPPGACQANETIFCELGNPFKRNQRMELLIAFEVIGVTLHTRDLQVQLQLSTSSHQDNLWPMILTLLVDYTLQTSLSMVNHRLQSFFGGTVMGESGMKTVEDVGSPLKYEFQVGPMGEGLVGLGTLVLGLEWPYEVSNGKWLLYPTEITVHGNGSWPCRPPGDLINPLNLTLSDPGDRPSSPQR
T1 sequence (P26006 876-1051 partner limits assumed): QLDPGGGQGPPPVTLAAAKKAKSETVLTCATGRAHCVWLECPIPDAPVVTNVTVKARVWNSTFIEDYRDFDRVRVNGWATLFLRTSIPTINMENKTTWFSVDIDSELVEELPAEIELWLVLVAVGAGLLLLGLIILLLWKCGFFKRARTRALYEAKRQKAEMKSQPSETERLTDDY
T1 sequence (P05556 21-798): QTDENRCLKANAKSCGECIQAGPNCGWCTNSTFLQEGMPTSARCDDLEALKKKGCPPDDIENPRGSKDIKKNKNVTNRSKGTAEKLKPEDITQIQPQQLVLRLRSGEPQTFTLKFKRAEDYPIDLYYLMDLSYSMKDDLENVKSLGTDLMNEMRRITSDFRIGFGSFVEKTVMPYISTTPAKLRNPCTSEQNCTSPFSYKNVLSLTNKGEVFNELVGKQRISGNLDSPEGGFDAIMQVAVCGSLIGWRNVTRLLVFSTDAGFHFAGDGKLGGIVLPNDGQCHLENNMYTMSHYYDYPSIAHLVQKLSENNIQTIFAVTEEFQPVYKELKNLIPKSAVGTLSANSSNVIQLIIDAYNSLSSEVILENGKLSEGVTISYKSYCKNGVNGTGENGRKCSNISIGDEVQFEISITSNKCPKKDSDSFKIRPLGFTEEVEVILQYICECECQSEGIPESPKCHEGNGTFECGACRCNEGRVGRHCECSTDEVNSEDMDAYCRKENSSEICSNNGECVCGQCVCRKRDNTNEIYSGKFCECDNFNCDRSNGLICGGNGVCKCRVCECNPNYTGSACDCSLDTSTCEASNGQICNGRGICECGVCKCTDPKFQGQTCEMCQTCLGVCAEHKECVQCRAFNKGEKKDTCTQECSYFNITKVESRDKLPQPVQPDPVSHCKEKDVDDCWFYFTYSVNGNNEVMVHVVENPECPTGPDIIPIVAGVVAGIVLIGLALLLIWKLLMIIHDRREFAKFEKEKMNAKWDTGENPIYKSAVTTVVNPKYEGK
T3 sequence (P08648 42-894 limits assumed): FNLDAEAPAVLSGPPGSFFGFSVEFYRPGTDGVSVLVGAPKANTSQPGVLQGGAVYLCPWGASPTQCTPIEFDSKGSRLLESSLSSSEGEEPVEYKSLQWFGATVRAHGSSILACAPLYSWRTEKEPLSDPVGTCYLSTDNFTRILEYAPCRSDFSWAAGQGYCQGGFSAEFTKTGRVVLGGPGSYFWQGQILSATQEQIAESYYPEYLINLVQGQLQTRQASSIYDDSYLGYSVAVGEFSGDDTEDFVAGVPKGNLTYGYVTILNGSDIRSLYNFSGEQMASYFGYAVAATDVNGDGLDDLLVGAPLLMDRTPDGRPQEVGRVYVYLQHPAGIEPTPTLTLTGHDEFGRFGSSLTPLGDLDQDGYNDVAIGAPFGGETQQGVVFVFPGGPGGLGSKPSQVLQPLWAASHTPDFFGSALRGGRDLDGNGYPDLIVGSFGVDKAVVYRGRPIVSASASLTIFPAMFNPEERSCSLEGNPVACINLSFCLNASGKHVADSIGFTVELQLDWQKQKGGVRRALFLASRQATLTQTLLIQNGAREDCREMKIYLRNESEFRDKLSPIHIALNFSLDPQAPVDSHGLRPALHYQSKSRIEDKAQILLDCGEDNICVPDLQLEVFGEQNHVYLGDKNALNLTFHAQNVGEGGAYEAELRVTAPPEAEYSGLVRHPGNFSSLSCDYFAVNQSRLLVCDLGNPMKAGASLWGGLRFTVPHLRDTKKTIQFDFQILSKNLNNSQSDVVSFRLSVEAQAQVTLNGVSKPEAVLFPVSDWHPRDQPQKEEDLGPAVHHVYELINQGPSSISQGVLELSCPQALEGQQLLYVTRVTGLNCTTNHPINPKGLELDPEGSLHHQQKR
T3 sequence (P08648 895-1049 partner limits assumed): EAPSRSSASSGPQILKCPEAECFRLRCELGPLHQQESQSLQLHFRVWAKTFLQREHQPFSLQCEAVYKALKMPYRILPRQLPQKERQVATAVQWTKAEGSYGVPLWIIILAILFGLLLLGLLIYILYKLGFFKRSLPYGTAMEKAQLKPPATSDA
T3 sequence (P05556 21-798): as the sequence (P05556 21-798) above
T2 sequence (P06756 31-889 limits assumed): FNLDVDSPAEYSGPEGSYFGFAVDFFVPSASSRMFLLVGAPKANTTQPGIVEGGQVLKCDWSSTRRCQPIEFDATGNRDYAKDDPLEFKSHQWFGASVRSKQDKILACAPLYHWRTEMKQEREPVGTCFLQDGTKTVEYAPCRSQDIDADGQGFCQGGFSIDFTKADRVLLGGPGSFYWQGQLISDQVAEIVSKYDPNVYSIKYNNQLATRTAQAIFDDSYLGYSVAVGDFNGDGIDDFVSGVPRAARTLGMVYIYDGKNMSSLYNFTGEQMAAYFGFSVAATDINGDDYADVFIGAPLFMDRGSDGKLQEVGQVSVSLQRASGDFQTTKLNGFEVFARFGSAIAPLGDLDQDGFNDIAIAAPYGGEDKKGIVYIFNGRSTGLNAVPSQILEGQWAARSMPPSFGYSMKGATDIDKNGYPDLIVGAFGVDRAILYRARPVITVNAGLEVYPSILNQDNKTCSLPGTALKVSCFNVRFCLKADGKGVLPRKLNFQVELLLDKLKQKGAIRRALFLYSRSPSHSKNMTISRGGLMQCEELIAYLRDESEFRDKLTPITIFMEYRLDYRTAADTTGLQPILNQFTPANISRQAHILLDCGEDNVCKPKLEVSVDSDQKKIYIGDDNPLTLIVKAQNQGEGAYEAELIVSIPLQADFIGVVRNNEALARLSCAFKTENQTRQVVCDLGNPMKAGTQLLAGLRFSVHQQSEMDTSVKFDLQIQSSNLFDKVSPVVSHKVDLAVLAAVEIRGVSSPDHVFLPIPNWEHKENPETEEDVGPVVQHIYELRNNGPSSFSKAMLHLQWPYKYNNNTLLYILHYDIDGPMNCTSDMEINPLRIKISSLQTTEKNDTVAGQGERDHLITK
T2 sequence (P06756 891-1048 partner limits assumed): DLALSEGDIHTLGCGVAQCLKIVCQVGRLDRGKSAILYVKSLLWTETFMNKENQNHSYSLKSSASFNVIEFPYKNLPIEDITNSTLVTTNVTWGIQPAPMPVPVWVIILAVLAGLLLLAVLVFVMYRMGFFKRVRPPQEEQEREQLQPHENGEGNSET
T2 sequence (P05106 27-788): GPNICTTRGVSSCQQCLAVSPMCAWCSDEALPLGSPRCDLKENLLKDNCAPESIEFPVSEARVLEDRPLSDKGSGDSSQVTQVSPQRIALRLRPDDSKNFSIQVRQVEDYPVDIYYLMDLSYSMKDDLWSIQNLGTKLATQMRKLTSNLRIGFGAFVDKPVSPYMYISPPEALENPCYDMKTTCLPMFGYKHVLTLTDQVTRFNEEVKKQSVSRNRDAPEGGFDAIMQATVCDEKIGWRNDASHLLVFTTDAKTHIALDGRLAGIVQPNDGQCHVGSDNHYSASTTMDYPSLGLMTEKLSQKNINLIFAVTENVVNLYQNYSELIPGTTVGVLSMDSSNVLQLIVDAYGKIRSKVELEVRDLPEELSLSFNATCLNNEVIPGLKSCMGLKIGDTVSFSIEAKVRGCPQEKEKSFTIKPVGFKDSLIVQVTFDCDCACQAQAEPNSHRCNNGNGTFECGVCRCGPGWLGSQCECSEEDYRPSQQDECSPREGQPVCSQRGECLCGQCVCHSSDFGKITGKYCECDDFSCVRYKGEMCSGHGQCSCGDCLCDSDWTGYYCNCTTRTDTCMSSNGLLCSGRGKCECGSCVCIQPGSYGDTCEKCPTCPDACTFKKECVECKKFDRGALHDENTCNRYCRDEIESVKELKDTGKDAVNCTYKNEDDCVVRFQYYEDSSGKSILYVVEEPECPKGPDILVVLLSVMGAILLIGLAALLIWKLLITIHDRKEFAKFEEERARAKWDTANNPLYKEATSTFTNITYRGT

B1: rhAPC: Recombinant human activated protein C obtained from Eli Lilly; FDA-approved drug for severe sepsis (protein)
chain 1: ANSFLEELRHSSLERECIEEICDFEEAKEIFQNVDDTLAFWSKHVDGDQCLVLPLEHPCASLCCGHGTCIDGIGSFSCDCRSGWEGRFCQREVSFLNCSLDNGGCTHYCLEEVGWRRCSCAPGYKLGDDLLQCHPAVKFPCGRPWKRMEKKRSHL
chain 2: LIDGKMTRRGDSPWQVVLLDSKKKLACGAVLIHPSWVLTAAHCMDESKKLLVRLGEYDLRRWEKWELDLDIKEVFVHPNYSKSTTDNDIALLHLAQPATLSQTIVPICLPDSGLAERELNQAGQETLVTGWGYHSSREKEAKRNRTFVLNFIKIPVVPHNECSEVMSNMVSENMLCAGILGDRQDACEGDSGGPMVASFHGTWFLVGLVSWGEGCGLLHNYGVYTKVSRYLDWIHGHIRDKEAPQKSWAP
direction of movement (human neutrophils [1]): without significantly altering
decrease of average lateral migration speed (S) (human neutrophils [1]; over 30 neutrophils in each group): more than 2.5 fold
neutrophil migration on FN toward the fMLP tip (human neutrophils [1]; rhAPC pre-treatment): dramatically decreased
increase in intracellular Ca2+ concentration by fMLP treatment (human neutrophils [2]): had no effect
neutrophil recruitment in the BALF (LPS treated mice): significantly reduced
direct binding to soluble α3β1 (α3β1): bound
direct binding to soluble αVβ3 (αVβ3): bound
direct binding to soluble α5β1 (α5β1): bound
fMLP-induced adhesion of human neutrophils to immobilized FN (human neutrophils [3]): significantly reduced; also recorded: abolished
random migration of neutrophils on FN induced by fMLP (human neutrophils [4]; 10 μg/ml protein, fMLP): dramatically reduced
neutrophil migration on FN by IL-8 (human neutrophils [4]; rhAPC pre-treatment, IL-8): dramatically decreased
